From patent US20200172905, “RNA APTAMERS AGAINST TRANSFERRIN RECEPTOR (TFR)” (CITY OF HOPE, published 2020)

Biological target: Transferrin receptor (TfR, TFRC) (UniProt P02786 SEQ:89-760)
Experiment: SPR; value only in figure, stated to be in similar range to TR14; Biacore T100, biotinylated aptamer on SA chip, 30 mM Tris-HCl pH 7.5, 150 mM NaCl, 5 mM MgCl2
Conditions: SELEX was against the extracellular domain; chain copies: 2; label: biotin (SPR), Cy3 (cell imaging)
Method: The kinetics of TR14 S1-3 were analysed by surface plasmon resonance (SPR) technology. The Biacore T100 (GE Healthcare, Uppsala, Sweden) was used to monitor label-free the aptamer-transferrin receptor interactions in real time. Biotinylated aptamers were coupled to a streptavidin-coated Biocore chip (SensorChip SA, BR-1003-98, General Electric Company) by an injection in binding buffer at concentration of 25 μg/mL (30 mM Tris-HCl, pH 7.5, 150 mM NaCl, 5 mM MgCl2) at 10 uL/min. The RNA was refolded by heating to 65° C. followed by cooling to 37° C. before immobilization. To measure binding kinetics, five concentrations of purified transferrin receptor protein were injected at a flow rate of 10 uL per minute. After binding, the surface was regenerated by injecting 50 mM NaOH at flow rate of 15 μL per minutes for 20 seconds. Data from the control surface were subtracted. BlAevaluation software (GE Healthcare) was used for analysis. The binding data were fit to a 1:1 binding with a mass transfer model to calculate kinetic parameters.

Transferrin receptor (TfR, TFRC), sequence (P02786 89-760): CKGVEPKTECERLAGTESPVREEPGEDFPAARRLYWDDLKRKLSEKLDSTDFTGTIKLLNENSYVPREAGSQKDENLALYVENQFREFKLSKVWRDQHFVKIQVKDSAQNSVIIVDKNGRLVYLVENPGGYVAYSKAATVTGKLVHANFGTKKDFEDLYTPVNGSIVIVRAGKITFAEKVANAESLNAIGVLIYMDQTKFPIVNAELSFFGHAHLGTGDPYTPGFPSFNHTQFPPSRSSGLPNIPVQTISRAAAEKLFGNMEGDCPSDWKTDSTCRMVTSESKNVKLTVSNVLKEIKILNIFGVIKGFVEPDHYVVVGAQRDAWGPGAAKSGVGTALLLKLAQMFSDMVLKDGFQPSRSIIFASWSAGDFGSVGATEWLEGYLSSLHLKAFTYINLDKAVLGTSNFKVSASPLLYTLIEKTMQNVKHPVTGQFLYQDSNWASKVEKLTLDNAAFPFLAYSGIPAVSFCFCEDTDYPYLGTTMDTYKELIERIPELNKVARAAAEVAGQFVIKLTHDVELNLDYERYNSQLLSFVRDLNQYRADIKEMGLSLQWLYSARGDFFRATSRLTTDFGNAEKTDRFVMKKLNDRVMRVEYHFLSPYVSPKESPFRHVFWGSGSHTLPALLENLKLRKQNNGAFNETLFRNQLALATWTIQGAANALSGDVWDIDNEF

UUUAUUCACAUUUUUGAAUUGA (ssRNA, 2'-F (library of 2'F RNAs; positions not stated)) [TR14 S1-3 (22-mer)]: binds.
